For 94 variants, protein stability index results are on record in the supplement of paper PMC10567573.

The chains are these.
B1: ZNF449 (parent)
chain: QLTGHQRIHSGEEPHKCPECGKRF
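Further: lentivirally expressed fusions sorted by FACS into six bins by GFP to DsRed ratio, PSI derived from sequencing read proportions per bin multiplied by bin number.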

The series covers variants of B1. Kind of series: protein stability index of a GFP-peptide fusion (GPS, HEK-293T) (PSI 1-6); higher = more stable. Conditions: c terminus: a fixed tail appended.
As for QLTGPQRIHSGEEPHKCPECGKRF, the protein stability index turned out to be 4.48.
With QLTGTQRIHSGEEPHKCPECGKRF, the protein stability index is 4.08.
The value for QLTGYQRIHSGEEPHKCPECGKRF was 2.92; that for QLTGFQRIHSGEEPHKCPECGKRF was 2.94; that for QLTGKQRIHSGEEPHKCPECGKRF was 4.46.
The value for QLTGDQRIHSGEEPHKCPECGKRF was 4.38; that for QLTGRQRIHSGEEPHKCPECGKRF was 4.03; that for QLTGEQRIHSGEEPHKCPECGKRF was 4.56.
The value for QLTGSQRIHSGEEPHKCPECGKRF was 3.41.
For QLTGMQRIHSGEEPHKCPECGKRF, the protein stability index was 3.67.
The value for QLTGLQRIHSGEEPHKCPECGKRF was 3.45.
The value for QLTGVQRIHSGEEPHKCPECGKRF was 3.56; that for QLTGIQRIHSGEEPHKCPECGKRF was 4.18; that for QLTGCQRIHSGEEPHKCPECGKRF was 4.86.
The value for QLTGAQRIHSGEEPHKCPECGKRF was 3.17; that for QLTGQQRIHSGEEPHKCPECGKRF was 3.65; that for QLTGNQRIHSGEEPHKCPECGKRF was 3.73.
On to QLTGWQRIHSGEEPHKCPECGKRF, for which the protein stability index was determined as 2.89.
Take QLTGGQRIHSGEEPHKCPECGKRF: the protein stability index was 4.45.
The value for QLTGHQRIWSGEEPHKCPECGKRF was 3.34; that for QLTGHQRIDSGEEPHKCPECGKRF was 4.9; that for QLTGHQRIVSGEEPHKCPECGKRF was 4.48.
The value for QLTGHQRICSGEEPHKCPECGKRF was 4.02; that for QLTGHQRIISGEEPHKCPECGKRF was 3.8; that for QLTGHQRILSGEEPHKCPECGKRF was 3.98.
The value for QLTGHQRIKSGEEPHKCPECGKRF was 3.81; that for QLTGHQRIPSGEEPHKCPECGKRF was 4.28.
Regarding QLTGHQRIGSGEEPHKCPECGKRF, the protein stability index is 3.52.
The value for QLTGHQRIASGEEPHKCPECGKRF was 3.57; that for QLTGHQRIESGEEPHKCPECGKRF was 4.61; that for QLTGHQRIMSGEEPHKCPECGKRF was 3.59.
For the variant QLTGHQRIRSGEEPHKCPECGKRF, the protein stability index was 3.54.
The value for QLTGHQRINSGEEPHKCPECGKRF was 4.13; that for QLTGHQRIFSGEEPHKCPECGKRF was 3.78; that for QLTGHQRISSGEEPHKCPECGKRF was 4.12.
The value for QLTGHQRITSGEEPHKCPECGKRF was 3.71; that for QLTGHQRIHSCEEPHKCPECGKRF was 4.88.
On to QLTGHQRIHSAEEPHKCPECGKRF, for which the protein stability index was 4.64.
The value for QLTGHQRGHSGEEPHKCPECGKRF was 4.59; that for QLTGHQRPHSGEEPHKCPECGKRF was 3.71; that for QLTGHQRSHSGEEPHKCPECGKRF was 4.51.
Take QLTGHQRTHSGEEPHKCPECGKRF: the protein stability index stood at 4.42.
The value for QLTGHQRCHSGEEPHKCPECGKRF was 4.75; that for QLTGHQRNHSGEEPHKCPECGKRF was 4.24.
As for QLTGHQRFHSGEEPHKCPECGKRF, the protein stability index was 3.96.
The value for QLTGHQRMHSGEEPHKCPECGKRF was 4.67; that for QLTGHQRKHSGEEPHKCPECGKRF was 3.63.
The value for QLTGHQRQHSGEEPHKCPECGKRF was 4.23; that for QLTGHQRDHSGEEPHKCPECGKRF was 4.71; that for QLTGHQRRHSGEEPHKCPECGKRF was 3.75.
The value for QLTGHQRAHSGEEPHKCPECGKRF was 4.54; that for QLTGHQRLHSGEEPHKCPECGKRF was 3.47; that for QLTGHQRHHSGEEPHKCPECGKRF was 3.17.
For QLTGHQRYHSGEEPHKCPECGKRF, the protein stability index was determined as 4.53.
The value for QLTGHQRWHSGEEPHKCPECGKRF was 4.27; that for QLTGHQREHSGEEPHKCPECGKRF was 4.5.
The value for QLTGHQRVHSGEEPHKCPECGKRF was 3.63; that for QLHGHQRIHSGEEPHKCPECGKRF was 4.45; that for QLEGHQRIHSGEEPHKCPECGKRF was 4.59.
Take QLLGHQRIHSGEEPHKCPECGKRF: the protein stability index came to 3.6.
The value for QLPGHQRIHSGEEPHKCPECGKRF was 4.61; that for QLKGHQRIHSGEEPHKCPECGKRF was 3.99; that for QLNGHQRIHSGEEPHKCPECGKRF was 2.66.
For the variant QLWGHQRIHSGEEPHKCPECGKRF, the protein stability index was found to be 2.77.
The value for QLIGHQRIHSGEEPHKCPECGKRF was 2.64; that for QLGGHQRIHSGEEPHKCPECGKRF was 3.69; that for QLVGHQRIHSGEEPHKCPECGKRF was 3.12.
On to QLYGHQRIHSGEEPHKCPECGKRF, for which the protein stability index worked out at 3.54.
The value for QLFGHQRIHSGEEPHKCPECGKRF was 4.01; that for QLSGHQRIHSGEEPHKCPECGKRF was 2.94.
The value for QLMGHQRIHSGEEPHKCPECGKRF was 4.15; that for QLQGHQRIHSGEEPHKCPECGKRF was 3.66.
The value for QLCGHQRIHSGEEPHKCPECGKRF was 4.82; that for QLDGHQRIHSGEEPHKCPECGKRF was 4.99; that for QLRGHQRIHSGEEPHKCPECGKRF was 3.48.
As to QLTPHQRIHSGEEPHKCPECGKRF, the protein stability index was 4.14.
With QLTAHQRIHSGEEPHKCPECGKRF, the protein stability index is 4.34.
The value for QLTEHQRIHSGEEPHKCPECGKRF was 4.38; that for QLTWHQRIHSGEEPHKCPECGKRF was 2.78.
The value for QLTRHQRIHSGEEPHKCPECGKRF was 3.69; that for QLTYHQRIHSGEEPHKCPECGKRF was 3.95.
As for QLTSHQRIHSGEEPHKCPECGKRF, the protein stability index is 4.57.
Consider QLTDHQRIHSGEEPHKCPECGKRF, for which the protein stability index was found to be 4.09.
The value for QLTQHQRIHSGEEPHKCPECGKRF was 4.7; that for QLTCHQRIHSGEEPHKCPECGKRF was 4.29.
Take QLTVHQRIHSGEEPHKCPECGKRF: the protein stability index amounted to 3.52.
For QLTMHQRIHSGEEPHKCPECGKRF, the protein stability index was determined as 4.18.
For QLTFHQRIHSGEEPHKCPECGKRF, the protein stability index is 3.5.
The value for QLTLHQRIHSGEEPHKCPECGKRF was 3.83; that for QLTTHQRIHSGEEPHKCPECGKRF was 4.43.
The value for QLTKHQRIHSGEEPHKCPECGKRF was 3.48; that for QLTIHQRIHSGEEPHKCPECGKRF was 3.41.
The value for QLTNHQRIHSGEEPHKCPECGKRF was 3.42; that for QLTHHQRIHSGEEPHKCPECGKRF was 3.94.
